Experiment: yeast display, Sf9 membrane polyspecificity reagent, FACS + sequencing; frameworks hold sequencing errors
How it was run: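 In a synthetic yeast display library (Saccharomyces cerevisiae BJ5465), nanobody expression was induced with galactose for 36–48 hours. FACS gates were set low and high (top ~1%) using anti-HA fluorescence for expression and streptavidin fluorescence for binding of the Sf9 membrane reagent. Each polyreactivity label is drawn from the gate of origin.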

| Sequence | polyreactivity (PSR sort gate) |
| --- | --- |
| QVQLEESGGGLVQAGGSLRLSCAASGLTFATYAIGWYRQAPGKERELVAAISRSGGRTYFADSVKGRFTISRDNAKNTVYLQMNSLKPEDTAVYYCNADFYASDDYWGQGTQVTVSS | high polyreactivity |
| QVQLVESGGGLVQAGGSLRLSCAASGSTFRRYAMGWYRQAPGKEREMVAGITYGSTYYADSVKGRFTISRDNAKNTVYLLMNSLKPEDTAVYYCAADLSYTSVHGYRSDTLMDYWGQGTQVTVSS | low polyreactivity |
| QVHLVESGGGLVQAGGCLRLSCAASGYIFKSYVMGWYRQAPGKERELVAAITWSGGSTYYADSVKGRFTMSRDNAKNTVYFQMNSLKPEDTAVYYCAAYPRRYRTTYDYWRQGTQVTVSS | high polyreactivity |
| QVQLVESGGGLVQAGGSLRLSCAASGRTFWNYAMGWSRQAPGKERELVAVIRFSDGSTYYADSVKGRFTISRDNAKNTVYLQMNSLKPEDTAVYYCAAKGPRRWGSGFDYWGQGTQVTVSS | low polyreactivity |
| QVQLVESGGGLVQAGGSLRLSCAASGRIFLVYAMGWYRQAPGKERELVATIRSGGRTNYADSVKGRFTISRDNAKNAVYLQMNSLKPEDTAVYYCNAPPYTSSDQDPAGDYEYWGQGTQVTVSS | high polyreactivity |
| QVQLVESGGGLVQAGGSLRLSCSASGLTFYSNAMGWYRQAPGKERELVASISKRGATTYYADSVKGRFTISRDNAKNTVYLQMNSLKPEDTAVYYCAADLRITSYNSWGQGTQVTVSS | low polyreactivity |
| QVQLVESGGALVQAGGSLRLSCAASGIIFGRNGMGWYRQAPGKERELVAAISRGGGSTYYADSVKGRFTISRDNAKNTVYLQMNSLKPEDTAVYYCARRPTGIYDYWGQVTQVTVSS | high polyreactivity |
| QVQLVESGGGLVQAGGSLRLSCAASGRIFWQNAMGWYRQAPGKERELVAAISSRGGTTYYADSVKGRFTISRDNAKNTVYLQMNSLKPEDTAVYYCNAALLLRYRGFFTVAAYDYWGLGTQVTVSS | low polyreactivity |
| QVQLVESGGGLVQAGGSLRLSCAASGSTFVDYAMGWYRQAPGKERELVAAINSDGGGTYYADSVKGRFTISRDNAKNTVYLQMNSLKPEDTAVYYCNVEYEDYYAQRYGYDYWGQGTQVTVSS | low polyreactivity |
| QVQLVESGGGLVQAGGSLRVSCAASGGIFGLYTMGWYRQAPGTERELVAGISKRGTRTRYADSVKGRFTISRDNAKNTVYLQMNSLKPDDTAVYYCNADYYVSKLDDWGQGTQVTVSS | high polyreactivity |
| QVQLVESGGGLVQAGGSLRLSCAASGRIFFNYAMGWYRQAPGKERELVAAIRGGGSTYADSVKGRFTISCDNAKNTVYLQMNSLKPEDTAVYYCAARYSGSPYHTRRYYYWGQGTQVTVSS | high polyreactivity |
| QVQLVESGGGLVQAGGSLRLSCAASGLIFSWYDMGWYRQAPGIERELVAAITTDGDDTYYADSVKGRFTISRDNAKNTVYLQLNSLKPEDTAVYYCAADSELAIRYPDRDYDSWGHGTQVTVSS | low polyreactivity |
| QVQLQESGGGLVQAGGNPRLSCAASGNSSWSAHMGWYRQTPGKERELVASNTAGTSTNYADSVKGRFTISRDNAKNTVYLQMNSLKPEDTAVSYCATLGYFSASRTDYDYWGQGTQVTVSS | low polyreactivity |
| QVQLVESGGGLVQEGGSLRLSCAASGSTFTYNDMGRYRQAPGKERELVAAITDSDGITYYADSVKGRFTISRDNAKNTVYLQMHSLKPEDTAVSYCAAYYYGSVAQDREYWGQGTQVTVSS | high polyreactivity |
| QVQLVESGGGLVQAGGSLRLSCAASGSTFGRYAMGWYRQAPGKERELVAAITSDTGNTNYADSVKGRFTISRDNAKNTVYLQMNSLKPEDTAVYYCAAATFWVLWGHVIGNYDSWGQGTQVTVSS | low polyreactivity |
| QVQLVESGGGLVQAGGSLRLTCAASGRTLNPYAMGWYRQAPGKERELVAAITWRGGSTYYADSVKGRFTISRDNAKNTVYLQMNSLKPEDTAVYYCAAREYYYPYYYWGQGTQVTVSS | high polyreactivity |
| QVQLVESGGGLVQAGGSLRLSCAASGSTFNWYAMGWYRQAPGKEMELVAAITSTGGSTYADSVKGRFTISRDNAKNTVYLQMNSLKPEDTAVYYCNVDTSSPSRRDYDYWGQGTQVTVSS | low polyreactivity |
| QVQLVESGGGLVQAGGSLRLSCAASGRIFVQYVMGWYRPAPGKERELVAAITGSDSTTYYADSVKGRFTISRDNAKNTVYLQMNSLKPEDTAVYYCNKDLWLQDDYWGQGTQVTVSS | low polyreactivity |
| QVQLVESGGGLVQAGGSLRLSCAASGSIFGRNAMGWYRQAPGKERELVAVISKRSGNTYYADSVKGRFTISRDNAKNTVYLQMNSLKPEDTAVYYCNAVDQKLLRYDYGGQGTQVTVSS | high polyreactivity |
| QVQLVESGGGLVHAGGSLRLSCAASGRTFYIYAMGWYRQAPGKERELVAAISKSGGRTYYADSVKGRITISRDNAKNTVYLQMNSLKPEDTAVYYCNKLVGDDTALYDYWGQGTQVTVSS | high polyreactivity |
| QVQLVESGGGLVQAGGSLRLSCAASGSTFTYYAMGWYRQAPGKERELVASISSTTGSTYYADSVKGRFTISRDNAKNTVYLQMNSLKPEDTAVYYCAAERVYPWYRYYYWGQGTQVTVSS | low polyreactivity |
| QVQLVESGGGLVQAGGSLRLSCAASGFTFVVNAMAWYRQAPGKEREFVAAIRQSGGSTYYADSVKGRFTISRDNAKNTVYLQMNSLKPEDTAVYYCNAEDWGYGYDYWGQGTQVTVSS | low polyreactivity |

| Sequence | polyreactivity (PSR sort gate) |
| --- | --- |
| QVQLVESGGGLVQAGGSLRLSCAASGRNIRRYTMGLYIQAPGKEREFVAAITWSGSSTNYADSVKGRFTISRDNAKNTVYLQMNSLKPEDTAVYYCAAENRRRRDDYWGQGTQVTVSS | high polyreactivity |
| QVQLVESGGGLVQAGGSLRLSCADSGRIFGLNAMGWYRQAPGKEREFVAAIRWRGGSTYYADSVKGRFTISRDNAKNTVYLQMNSLKPEDTAVYYCAADRNLGVSRYGYWGQGTQVTVSS | high polyreactivity |
| QVQLVESGGGLVQAGGSLRLSCAASGFIFLGYAMGWYRQAPGKERELVAAISSDSDTNYADSVKGRFTISRDNAKNTVFLQMNSLKPEDTAVYYCNADIDSYREMDYWGQGTLVTVSS | low polyreactivity |
| QVQLVESGRALVQAGGSLRLSCAASGSTSRIYALGWYRQAPWKERELVAALTRSGGSTYYADSVKGRFTISRDNAKNTVYLQMNSLKPEDTAVYYCAADYRSHSRYRYDKVDYWGQGTQVTVSS | high polyreactivity |
| QVQLVESGRGLVQAGGSLRLSCAASGRTFARYAIGWYRPAPGKERELVATIRRVGSTNYADSVNGRFTISRDNAKNTVYLQMNSLKPEDTAVYYCAARSLRYGRGMYYWGQGTQVTVSS | high polyreactivity |
| QVQLVESGGGLVQAGGSLRLSCAASGSTFEYNAMGWYRQAPGKERELVASSTNYADSVKGRFTISRDNAKNTVYLQMNSLKPEDTAVYYCAREQGVNRNHDYWGQGTQGTVSS | low polyreactivity |
| QVQLVESGGGLVQAGGSLRLSCAASGSIFNDYAMGWYRQAPGKERELVATISSGGDTYYADSVKGRFTISRDNAKNTVYLQMNSLKPEDTAVYYCAALTGGYVVYTDSYDYWGQGTQVTVSS | low polyreactivity |
| QVQLVESGGGLVQAGGSLLLSCAASGSIFYNYAMGWYRQAPGKERELVAAISQSGGSTRYADSVKGRFTISRDNAKNTVYLQMNSLKPEDTAVYYCAASRRKGQGSAGFGYWGQGTQVTVSS | high polyreactivity |
| QVQLVESGGGLVQAGGSLRLSCAASGSIFSYYAMGWYRQAPGKERVLVAAIRRGGSTNYADSVKGRFTISRDNAKNTVYLQLNSLKPEDTAVYYCAASLGWRFYYWGQGTQVTVSS | high polyreactivity |
| QVQLVESGGGLVQAGGSLRLSCAASGFISSENAMGWYRQAPGKERELVAAISSGGSTNYADSVKGRFTISRDNAKNTVYLQMNSLKPEDTAVYYCAATLPGWYNEDDSWGQGTQVNVSS | low polyreactivity |
| QVQLVESGGGLVQAGGSLRLSCAASGRTFRRYAMGWYRQAPGKERELVAVISGGGTYYADSVKGRFTISRDNAKNTVYLQMNSLKPEDTAVYYCATDSYSSLYGYDYWGQGTQVTVSS | high polyreactivity |
| QVQLVESGGRLVQAGGSLRLSCAASGSILYIYAMGWYRQAPGKERELVAAISKNSADTYYADSVKGRFTISRDNAKNTVYLQMNSLKPEDTAVYYCAADVVKVAAYNYWGQGTQVTVSS | low polyreactivity |
| QVQLVESGGGLVQAGGSLRLSCAASGSIFPWNTMGWYRQAPGKERELVARISTSGASTYYADSVKGRFTISRDNAKYTVYLQMNSLKQEDTAVYFCAKVRHYGGRSWWYYYWGQGTQVTVSS | high polyreactivity |
| QVQLVESGGGLVQAGGSLRLSCAASGSTLGGNAMGWYRQAPGKERELVAAITSSAGSTYYADSVKGRFTISRDNAKNTVYLQMNSLKPEDTAVYYCATSRDYIGYDYWGQGTQVTVSS | low polyreactivity |
| QVQLVESGGGLVQAGGSLRLICAASVSTFRKYAMGRYRQAPGKEREFVAAISSSGGRTYYADSVKGRFTISRDNAKNTVYLQMNSLKPEDTAVYYCNAYFRYSYDYWGQGTQVTVSS | high polyreactivity |
| QVQLVESGGGLVQAGGSLRLSCAASGRTFYFYAMGWYRQAPGKERELVAAIDFSGDSTYYADSVKGRFTISRDNAKNTVYLQMNSLKPEDTAVYYCAAEIYIGEQPYDYWGQGTQVTVSS | low polyreactivity |
| QVQLVESGGGLVQAGGSLRLSCAASGRIFYRNAMGWYRQAPGKERELVASITSGGRTNYADSVKGRFTISRDNAKNTVYLQMNSLKPEDTAVYYCAAPPPYSVRTFRFYYWGQGTQVTVSS | high polyreactivity |
| QVQLVESGGGLVQAGGILRLSCAASGSTFTGYAMGWYRQAPGKERELVAAISSSGGRTYYAASVKGRFTISRDNANNTVYLQMNSLKPEVTAVYYCATDHYRYGGYSWGQGTEVTVSS | high polyreactivity |
| QVQLVESGGGLVQAGGSLRLSCAASGFIFRYYAMGWYRQAPGKERELVAAISSRGGSTYYADSVKGRFTISRDNAKNTVYLQMNSLKPEDTAVYYCAKRGFYTDRDYWGQGTQVTVSS | high polyreactivity |
| QVQLVESGGGLVQAGGSLRLSCAPSGRTFQQYAMGCYRQAPGKDREFVAAITFSGGTTYFADSVKGRFTISRDNAKNTVYFQMNSLKPEDTAVYYCAADIYYWSFYYSRYDYWGQGTQVTVSS | high polyreactivity |
| QVQLVESGGGLVQAGGSLRLSCAASGRIFYGYAMGWYRQAPAKERELVAAISWRGGRTYYADSVKGRFTISRDNAKNTVYLQMNSLKPEDTAVYFCNKDFPPQGQLRNMYYWGQGTLVTVSS | high polyreactivity |

Source: the nanobody polyreactivity screen of Harvey et al. (2022)
